For two substances, PLA2G1B enzymatic activity on the membrane of CD4 T cells ([3H] arachidonic acid release) results are on record in patent EP4115900A1.

The target in this assay is gC1qR (C1QBP) on human T cells (human) (UniProt Q07021). The assay is described as follows: cell-based or functional assay.

The substance HCV core protein (Prospec HCV-011) had a PLA2G1B enzymatic activity on the membrane of CD4 T cells ([3H] arachidonic acid release) of 26 Fold.

“Staphylococcus aureus protein A (Sigma P6031)”: the PLA2G1B enzymatic activity on the membrane of CD4 T cells ([3H] arachidonic acid release) is 3 Fold.
